Measurements published in article doi:10.1101/2021.03.22.436414 (bioRxiv, 2021).

Molecular target: the molecule itself
Assay: TIRF microscopy of filament lengths at steady state

B1: Recombinant S. cerevisiae septin octamer capped with Cdc11-SNAP (Cdc11-Cdc12-Cdc3-Cdc10-Cdc10-Cdc3-Cdc12-Cdc11) (complex)
chain 1: MSGIIDASSALRKRKHLKRGITFTVMIVGQSGSGRSTFINTLCGQQVVDTSTTILLPTDTSTEIDLQLREETVELEDDEGVKIQLNIIDTPGFGDSLDNSPSFEIISDYIRHQYDEILLEESRVRRNPRFKDGRVHCCLYLINPTGHGLKEIDVEFIRQLGSLVNIIPVISKSDSLTRDELKLNKKLIMEDIDRWNLPIYNFPFDEDEISDEDYETNMYLRTLLPFAIIGSNEVYEMGGDVGTIRGRKYPWGILDVEDSSISDFVILRNALLISHLHDLKNYTHEILYERYRTEALSGESVAAESIRPNLTKLNGSSSSSTTTRRNTNPFKQSNNINNDVLNPASDMHGQSTGENNETYMTREEQIRLEEERLKAFEERVQQELLLKRQELLQREKELREIEARLEKEAKIKQEE
chain 2: MSAATATAAPVPPPVGISNLPNQRYKIVNEEGGTFTVMLCGESGLGKTTFINTLFQTVLKRADGQQHRQEPIRKTVEIDITRALLEEKHFELRVNVIDTPGFGDNVNNNKAWQPLVDFIDDQHDSYMRQEQQPYRTKKFDLRVHAVLYFIRPTGHGLKPIDIETMKRLSTRANLIPVIAKADTLTAQELQQFKSRIRQVIEAQEIRIFTPPLDADSKEDAKSGSNPDSAAVEHARQLIEAMPFAIVGSEKKFDNGQGTQVVARKYPWGLVEIENDSHCDFRKLRALLLRTYLLDLISTTQEMHYETYRRLRLEGHENTGEGNEDFTLPAIAPARKLSHNPRYKEEENALKKYFTDQVKAEEQRFRQWEQNIVNERIRLNGDLEEIQGKVKKLEEQVKSLQVKKSHLK
chain 3: MSLKEEQVSIKQDPEQEERQHDQFNDVQIKQESQDHDGVDSQYTNGTQNDDSERFEAAESDVKVEPGLGMGITSSQSEKGQVLPDQPEIKFIRRQINGYVGFANLPKQWHRRSIKNGFSFNLLCVGPDGIGKTTLMKTLFNNDDIEANLVKDYEEELANDQEEEEGQGEGHENQSQEQRHKVKIKSYESVIEENGVKLNLNVIDTEGFGDFLNNDQKSWDPIIKEIDSRFDQYLDAENKINRHSINDKRIHACLYFIEPTGHYLKPLDLKFMQSVYEKCNLIPVIAKSDILTDEEILSFKKTIMNQLIQSNIELFKPPIYSNDDAENSHLSERLFSSLPYAVIGSNDIVENYSGNQVRGRSYPWGVIEVDNDNHSDFNLLKNLLIKQFMEELKERTSKILYENYRSSKLAKLGIKQDNSVFKEFDPISKQQEEKTLHEAKLAKLEIEMKTVFQQKVSEKEKKLQKSETELFARHKEMKEKLTKQLKALEDKKKQLELSINSASPNVNHSPVPTKKKGFLR
chain 4: MDPLSSVQPASYVGFDTITNQIEHRLLKKGFQFNIMVVGQSGLGKSTLINTLFASHLIDSATGDDISALPVTKTTEMKISTHTLVEDRVRLNINVIDTPGFGDFIDNSKAWEPIVKYIKEQHSQYLRKELTAQRERFITDTRVHAILYFLQPNGKELSRLDVEALKRLTEIANVIPVIGKSDTLTLDERTEFRELIQNEFEKYNFKIYPYDSEELTDEELELNRSVRSIIPFAVVGSENEIEINGETFRGRKTRWSAINVEDINQCDFVYLREFLIRTHLQDLIETTSYIHYEGFRARQLIALKENANSRSSAHMSSNAIQR
modifications: Alexafluor488 dye on the SNAP tag
Q: For B1, which Kd is on record?
A: 84.5 ± 8.5 nM
